Reference: patent publication US20220402980A1 (published 2022)
Like-named read-outs stand apart in the source and are kept apart here. Bridges are numbered along the chain shown (N, C = ends). Where no end group is shown, it is not given here. [ ]: non-standard residue; d: D form. maleimide‑NOTA = 1,4,7-triazacyclononane-1,4-bis-acetic acid-7-maleimidoethylacetamide; Lys(N3) = [N-]=[N+]=NCCCC[C@H](N)C(=O)O; Pra = C#CC[C@H](N)C(=O)O

How the values were obtained:
[1] = biological target: T1, recombinant human αvβ6 extracellular domain (R&D Systems) (human, UniProt P06756 31-992; P18564 22-709)
T1 chain 1: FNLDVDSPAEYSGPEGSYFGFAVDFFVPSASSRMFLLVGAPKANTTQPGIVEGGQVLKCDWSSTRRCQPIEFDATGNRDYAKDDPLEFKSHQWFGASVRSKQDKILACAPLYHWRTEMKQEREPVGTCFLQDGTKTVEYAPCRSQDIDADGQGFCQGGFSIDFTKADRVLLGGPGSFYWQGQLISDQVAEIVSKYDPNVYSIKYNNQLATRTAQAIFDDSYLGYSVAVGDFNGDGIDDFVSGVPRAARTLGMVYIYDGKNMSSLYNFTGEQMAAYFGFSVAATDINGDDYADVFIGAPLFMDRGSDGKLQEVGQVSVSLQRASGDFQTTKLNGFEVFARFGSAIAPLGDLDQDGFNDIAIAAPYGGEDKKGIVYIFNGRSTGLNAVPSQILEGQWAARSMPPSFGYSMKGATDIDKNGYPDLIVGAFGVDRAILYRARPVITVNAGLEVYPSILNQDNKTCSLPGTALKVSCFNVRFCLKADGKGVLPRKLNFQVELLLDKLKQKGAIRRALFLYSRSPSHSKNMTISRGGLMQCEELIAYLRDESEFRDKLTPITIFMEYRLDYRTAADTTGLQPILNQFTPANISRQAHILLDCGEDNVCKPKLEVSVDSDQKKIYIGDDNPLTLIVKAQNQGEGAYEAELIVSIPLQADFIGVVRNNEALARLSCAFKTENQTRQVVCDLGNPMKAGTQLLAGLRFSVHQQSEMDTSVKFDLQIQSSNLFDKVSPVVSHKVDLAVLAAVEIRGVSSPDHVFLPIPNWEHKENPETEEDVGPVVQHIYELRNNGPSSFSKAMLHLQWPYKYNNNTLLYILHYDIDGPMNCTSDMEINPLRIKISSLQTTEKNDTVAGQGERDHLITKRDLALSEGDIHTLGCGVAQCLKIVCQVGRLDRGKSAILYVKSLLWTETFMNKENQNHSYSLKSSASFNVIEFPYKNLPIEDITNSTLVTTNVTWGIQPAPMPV
T1 chain 2: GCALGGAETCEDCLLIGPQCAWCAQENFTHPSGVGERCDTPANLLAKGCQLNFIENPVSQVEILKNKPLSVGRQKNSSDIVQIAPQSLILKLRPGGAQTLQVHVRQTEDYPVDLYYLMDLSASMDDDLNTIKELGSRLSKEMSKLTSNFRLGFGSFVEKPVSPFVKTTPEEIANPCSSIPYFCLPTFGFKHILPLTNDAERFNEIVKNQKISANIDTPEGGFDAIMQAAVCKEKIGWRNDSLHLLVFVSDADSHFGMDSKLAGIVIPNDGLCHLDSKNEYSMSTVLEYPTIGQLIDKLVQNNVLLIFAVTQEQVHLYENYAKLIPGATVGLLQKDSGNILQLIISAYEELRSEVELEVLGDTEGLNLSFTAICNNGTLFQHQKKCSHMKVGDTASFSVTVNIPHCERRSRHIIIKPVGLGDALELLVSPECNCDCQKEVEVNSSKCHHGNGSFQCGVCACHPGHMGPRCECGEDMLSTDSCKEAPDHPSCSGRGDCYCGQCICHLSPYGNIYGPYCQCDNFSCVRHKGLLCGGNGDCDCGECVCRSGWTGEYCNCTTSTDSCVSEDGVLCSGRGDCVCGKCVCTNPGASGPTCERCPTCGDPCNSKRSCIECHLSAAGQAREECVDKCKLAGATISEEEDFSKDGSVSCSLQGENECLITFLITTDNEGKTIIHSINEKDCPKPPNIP

[2] = biological target: T1, recombinant human αvβ6 extracellular …
[3] = biological target: T2, αvβ8 integrin (purified, coated on microtiter plates) (UniProt P06756 31-992; P26012 43-684)
T2 chain 1: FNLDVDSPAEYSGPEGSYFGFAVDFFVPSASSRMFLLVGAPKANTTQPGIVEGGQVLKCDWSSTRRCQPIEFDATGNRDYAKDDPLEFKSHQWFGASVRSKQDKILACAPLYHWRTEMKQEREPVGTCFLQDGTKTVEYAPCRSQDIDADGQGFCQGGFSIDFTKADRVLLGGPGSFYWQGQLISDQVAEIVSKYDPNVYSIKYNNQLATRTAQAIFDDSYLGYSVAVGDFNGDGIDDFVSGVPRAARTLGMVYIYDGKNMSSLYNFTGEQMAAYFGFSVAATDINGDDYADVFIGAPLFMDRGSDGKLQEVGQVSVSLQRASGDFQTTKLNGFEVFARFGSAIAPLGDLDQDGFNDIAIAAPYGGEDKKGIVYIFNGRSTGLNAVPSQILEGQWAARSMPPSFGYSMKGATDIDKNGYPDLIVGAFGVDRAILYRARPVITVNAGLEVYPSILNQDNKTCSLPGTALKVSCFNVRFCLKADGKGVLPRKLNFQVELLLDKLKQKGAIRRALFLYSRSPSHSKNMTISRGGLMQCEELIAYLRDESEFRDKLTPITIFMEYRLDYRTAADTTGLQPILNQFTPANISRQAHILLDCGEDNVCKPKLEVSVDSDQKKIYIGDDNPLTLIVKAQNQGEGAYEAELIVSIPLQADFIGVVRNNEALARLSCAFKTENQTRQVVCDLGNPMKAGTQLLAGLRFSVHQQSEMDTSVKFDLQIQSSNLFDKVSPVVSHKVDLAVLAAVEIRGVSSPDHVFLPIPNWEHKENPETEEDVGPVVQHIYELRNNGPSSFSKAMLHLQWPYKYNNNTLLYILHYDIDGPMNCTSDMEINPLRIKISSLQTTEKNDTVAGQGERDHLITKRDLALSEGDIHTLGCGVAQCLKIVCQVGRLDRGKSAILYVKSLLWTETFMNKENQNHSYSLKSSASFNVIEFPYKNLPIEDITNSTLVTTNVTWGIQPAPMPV
T2 chain 2: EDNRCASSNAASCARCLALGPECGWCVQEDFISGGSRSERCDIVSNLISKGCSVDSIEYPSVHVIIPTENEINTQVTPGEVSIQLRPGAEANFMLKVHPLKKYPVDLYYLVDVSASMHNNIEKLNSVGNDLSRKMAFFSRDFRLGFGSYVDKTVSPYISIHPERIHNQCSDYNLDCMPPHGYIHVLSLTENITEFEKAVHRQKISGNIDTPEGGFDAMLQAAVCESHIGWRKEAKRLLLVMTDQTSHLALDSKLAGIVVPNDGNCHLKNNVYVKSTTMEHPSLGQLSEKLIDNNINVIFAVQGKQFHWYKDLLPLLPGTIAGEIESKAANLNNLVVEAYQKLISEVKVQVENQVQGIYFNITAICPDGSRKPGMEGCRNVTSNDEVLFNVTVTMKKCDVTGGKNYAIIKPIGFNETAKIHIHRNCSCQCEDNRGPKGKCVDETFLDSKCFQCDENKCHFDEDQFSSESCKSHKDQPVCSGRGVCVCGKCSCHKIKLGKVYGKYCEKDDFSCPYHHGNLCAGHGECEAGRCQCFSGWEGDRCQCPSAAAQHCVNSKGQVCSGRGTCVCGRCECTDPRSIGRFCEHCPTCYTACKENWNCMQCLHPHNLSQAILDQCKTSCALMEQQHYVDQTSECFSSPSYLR

[4] = biological target: T3, cell-surface expressed αvβ6 on human cells (5637 bladder cancer cells, HaCaT keratinocytes, BxPC-3 pancreatic … (human, UniProt P06756 31-1048; P18564 22-788); assay: FACS
T3 chain 1: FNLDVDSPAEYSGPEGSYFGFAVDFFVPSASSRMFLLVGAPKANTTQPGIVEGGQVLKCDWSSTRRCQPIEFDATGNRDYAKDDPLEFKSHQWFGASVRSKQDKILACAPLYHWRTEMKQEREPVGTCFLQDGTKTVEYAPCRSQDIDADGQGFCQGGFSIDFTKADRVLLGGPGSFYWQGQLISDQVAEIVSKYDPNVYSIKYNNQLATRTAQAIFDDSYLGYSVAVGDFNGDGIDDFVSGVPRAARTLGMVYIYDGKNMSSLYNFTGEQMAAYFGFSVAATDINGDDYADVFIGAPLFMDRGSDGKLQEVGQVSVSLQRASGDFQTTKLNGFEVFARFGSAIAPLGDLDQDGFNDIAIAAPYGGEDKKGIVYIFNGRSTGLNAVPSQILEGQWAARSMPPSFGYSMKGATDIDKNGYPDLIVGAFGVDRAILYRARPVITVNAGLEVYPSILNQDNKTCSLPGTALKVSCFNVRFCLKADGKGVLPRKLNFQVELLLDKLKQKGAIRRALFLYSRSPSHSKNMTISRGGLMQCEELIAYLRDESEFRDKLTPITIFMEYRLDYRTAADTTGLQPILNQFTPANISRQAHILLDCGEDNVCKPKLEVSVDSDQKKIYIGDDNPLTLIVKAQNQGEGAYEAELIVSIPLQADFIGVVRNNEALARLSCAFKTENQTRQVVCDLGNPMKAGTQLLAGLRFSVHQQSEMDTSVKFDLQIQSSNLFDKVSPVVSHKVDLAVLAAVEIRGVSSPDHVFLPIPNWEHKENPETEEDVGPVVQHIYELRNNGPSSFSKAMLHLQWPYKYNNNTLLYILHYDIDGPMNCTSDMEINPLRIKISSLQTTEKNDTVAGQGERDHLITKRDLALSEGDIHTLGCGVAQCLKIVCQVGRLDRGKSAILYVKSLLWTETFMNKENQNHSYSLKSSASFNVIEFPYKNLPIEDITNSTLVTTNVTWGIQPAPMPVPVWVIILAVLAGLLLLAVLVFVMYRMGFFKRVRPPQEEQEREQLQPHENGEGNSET
T3 chain 2: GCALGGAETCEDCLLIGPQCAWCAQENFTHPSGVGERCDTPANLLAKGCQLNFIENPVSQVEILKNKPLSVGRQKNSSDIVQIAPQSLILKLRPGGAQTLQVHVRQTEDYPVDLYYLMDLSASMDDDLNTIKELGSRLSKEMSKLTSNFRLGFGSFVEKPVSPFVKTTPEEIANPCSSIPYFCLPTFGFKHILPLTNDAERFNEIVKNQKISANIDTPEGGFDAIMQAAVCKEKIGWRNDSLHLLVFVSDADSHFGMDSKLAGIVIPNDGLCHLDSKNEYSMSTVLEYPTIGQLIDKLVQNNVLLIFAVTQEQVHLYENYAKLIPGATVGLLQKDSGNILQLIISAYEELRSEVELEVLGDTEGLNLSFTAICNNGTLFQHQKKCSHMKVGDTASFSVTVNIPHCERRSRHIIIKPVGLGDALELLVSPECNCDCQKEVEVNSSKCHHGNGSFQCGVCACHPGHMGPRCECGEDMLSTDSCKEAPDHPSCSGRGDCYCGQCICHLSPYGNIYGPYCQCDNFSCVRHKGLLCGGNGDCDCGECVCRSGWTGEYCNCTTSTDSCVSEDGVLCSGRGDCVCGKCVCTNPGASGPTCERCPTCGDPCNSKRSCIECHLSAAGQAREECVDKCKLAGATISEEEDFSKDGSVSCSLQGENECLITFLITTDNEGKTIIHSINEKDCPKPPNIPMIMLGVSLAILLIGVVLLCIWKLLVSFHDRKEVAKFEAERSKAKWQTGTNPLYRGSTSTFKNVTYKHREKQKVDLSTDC

[5] = biological target: T3, cell-surface expressed αvβ6 on human …; assay: FACS
[6] = biological target: T1, recombinant human αvβ6 extracellular …

Binder | Ki [1] | IC50 [4] | also measured
C(maleimide‑NOTA)FETLRGDLRILSILR[Pra]QNL[Lys(N3)]KELQD-NH2 (triazole 17-21) [NOTA-5a (peptide 5a coupled to maleimide-NOTA)] | 2.31 nM |  | 
C(IRDye 800CW maleimide)FETLRGDLRILSILR[Pra]QNL[Lys(N3)]KELQD-NH2 (triazole 17-21) [5a-IRDye (peptide 5a coupled via Cys to maleimide-IRDye 800CW)] |  |  | EC50 [2]: 2.8 nM; EC50 [3]: 1.9 nM
C(maleimide‑NOTA)FETLRGEERILSILRHQNLLKELQD [NOTA-2a (peptide 2a coupled to maleimide-NOTA)] | > 1000 nM |  | 
FETLRGDERILSILRHQNLLKELQD [peptide 1 (CgA-derived peptide, residues 39-63), synthetic] |  | 640 nM | 
FETLRGDLRILSILRHQNLLKELQD [peptide 4] |  | 16.9 nM | IC50 [5]: 80 nM
CFETLRGDLRILSILR[Pra]QNL[Lys(N3)]KELQD-NH2 (triazole 17-21) [peptide 5a] | 1.71 nM |  | 
Ac-FETLRGDLRILSILR[Pra]QNL[Lys(N3)]KELQD-NH2 (triazole 16-20) [peptide 5 (triazole-stapled CgA39-63-derived peptide)] | 0.93 nM | 3.6 nM | Ki [6]: 0.84 nM; IC50 [5]: 25 nM
CFETLRGEERILSILRHQNLLKELQD [peptide 2a] |  |  | Ki [6]: > 100 nM
